From patent US6395479B1, “Androgen-metabolic gene mutations and prostate cancer risk” (University of Southern California, priority 1998, dated 2002)
Where a chain is given by its changes, count along the chain named. In names and notes the source's numbering stands.

T1: SRD5A2 (steroid 5α-reductase type II) (Homo sapiens, UniProt P31213, A49T/L89V)
T1 construct: expressed in transfected cells; host or cells: cos cells (electroporated; sonicated cell extracts)
T1 sequence (P31213 1-254 A49T/L89V): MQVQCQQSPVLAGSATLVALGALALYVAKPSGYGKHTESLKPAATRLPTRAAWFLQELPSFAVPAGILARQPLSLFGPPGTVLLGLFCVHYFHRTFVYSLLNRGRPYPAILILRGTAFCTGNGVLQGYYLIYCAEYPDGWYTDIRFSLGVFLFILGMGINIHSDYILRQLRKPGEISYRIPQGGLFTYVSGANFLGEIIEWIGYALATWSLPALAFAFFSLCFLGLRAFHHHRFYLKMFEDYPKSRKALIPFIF

B1: normal enzyme: normal (wild type) steroid 5α-reductase type II from the SRD5A2 construct expressed in cos cells (protein, UniProt P31213 1-254, looked up)
3-oxo-5-alpha-steroid …: T1 sequence (P31213 1-254 A49T/L89V) with T49A, V89L
B2: A49T enzyme: steroid 5α-reductase type II encoded by SRD5A2 cDNA with the A49T missense mutation, expressed in cos cells (protein, UniProt P31213 1-254, looked up, variant A49T)
3-oxo-5-alpha-steroid …: T1 sequence (P31213 1-254 A49T/L89V) with V89L

Assays:
[1] = test system: SRD5A2 (steroid 5α-reductase type II); assay: SRD5A2 activity in extracts of transfected cos cells: conversion of [14C] testosterone to [14C] dihydrotestosterone with NADPH; type: biochemical, human; details: for Vmax for testosterone to dihydrotestosterone conversion: normalized protein extracts of transfected cos cells, 37° C., cofactor NADPH
[2] = molecular target: T1, SRD5A2 (steroid 5α-reductase type II); assay: as above; type: biochemical; details: substrate testosterone

| Molecule | Vmax for testosterone to dihydrotestosterone conversion [1] [nmol/min/mg] | testosterone concentration at which the enzyme is substrate inhibited [1] [µM] | apparent KM for testosterone compared to the normal enzyme [2] |
| --- | --- | --- | --- |
| B1 | 1.3 | 1.5 |  |
| B2 | 3.8 | 6 | higher KM for testosterone |
